Data on 8 molecules can be found in patent US20230002493A1 (ORIONIS BIOSCIENCES, published 2023).

For experiment [1], the target named is T1, recombinant PD-L1 extracellular domain fused to the mouse IgG1 Fc domain (SinoBiologicals) (human; mouse, UniProt Q9NZQ7 19-238).
T1 construct: extracellular domain; also called human PD-L1-mouse Fc; PD-L1-mouse Fc protein; not shown: mouse IgG1 Fc domain
The experiment in a line: BLI (Octet Red 96), PD-L1-mouse IgG1 Fc on AMQ biosensors, VHH dilution series; KD and kdis printed ND. Here is the method:
(§1) Affinities of resulting variants were measured using the bio-layer interferometry technology on an Octet Red 96 instrument (ForteBio). In brief, recombinant PD-L1 extracellular domain fused to the mouse IgG1 Fc domain (SinoBiologicals) was immobilized on anti-murine IgG quantitation (AMQ) biosensors (ForteBio). Loaded sensors were incubated with a serial dilution of PD-L1 VHH variant, association and dissociation monitored and kinetic parameters were calculated using the Octet Data Analysis software v10 (ForteBio).

For experiment [2], the target named is T1, recombinant PD-L1 extracellular domain …. As to the kind of experiment: BLI as in Example 1; reference not named, taken as parental 2LIG189. Here is the method:
as §1
(§2) The aspartic acid at position 1 was included to avoid the risk of pyroglutamate formation. […] Resulting mutants were purified and affinities measured as described in Example 1.

For experiment [3] the target is unchanged. As to the kind of experiment: BLI (Octet Red 96); ratio of the printed KDs, variant over 2LIG189. The procedure:
as §1, §2

Experiment [4] shares this target. The experiment in a line: BLI (Octet Red 96), PD-L1-mouse IgG1 Fc on AMQ biosensors, VHH dilution series. Here is the method:
as §1, §2

For experiment [5] the target is unchanged. The experiment in a line: BLI as described above; reference not named.
For experiment [6] the target is unchanged. The experiment in a line: BLI (Octet), PD-L1-mouse Fc on the sensor, VHH dilution series, as described above. Here is the method: as §1

Some results are limits rather than exact numbers.

T1 sequence (Q9NZQ7 19-238): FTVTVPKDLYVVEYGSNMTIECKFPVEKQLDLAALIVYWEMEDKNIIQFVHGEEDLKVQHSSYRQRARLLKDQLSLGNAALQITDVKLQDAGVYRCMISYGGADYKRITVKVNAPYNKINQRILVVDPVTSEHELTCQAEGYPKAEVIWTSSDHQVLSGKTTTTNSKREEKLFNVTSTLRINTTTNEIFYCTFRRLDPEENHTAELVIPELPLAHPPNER

B1: P-1665: 2LIG99_D54G (VHH)
VHH: QVQLQESGGGLVQAGGSLRLSCTASGTIFSINRMDWFRQAPGKQRELVALITSGGTPAYADSAKGRFTISRDNTKKTVSLQMNSLKPEDTAVYYCHVSSGVYNYWGQGTQVTVSS
notes: not shown: C-terminal His-tag
Regarding B1, the kon in experiment [1] came to 1.28e+06 M⁻¹ s⁻¹.

B2: 2LIG189 variant D33H (VHH, not shown: small tags and cut ends)
VHH: QVQLQESGGGLVQAGGSLRLSCAASGKIFSGNHMGWYRQAPGKQRELVGIITSGGITDYADAVKGRFTISRDNAKNMMYLQMNSLKPEDTAVYYCNMRDRTIWWGQGTQVTVSS
B2: in experiment [2], the “fold increase in affinity” value is no less than 2 fold. Further, the “Ratio KD” value in experiment [3] worked out at 0.47. In experiment [4], the Kd stood at 0.372 nM, the koff was 0.000157 s⁻¹ and the on-rate (kon) stood at 421000 M⁻¹ s⁻¹.

B3: 2LIG189 variant N32R (VHH, not shown: small tags and cut ends)
VHH: QVQLQESGGGLVQAGGSLRLSCAASGKIFSGRDMGWYRQAPGKQRELVGIITSGGITDYADAVKGRFTISRDNAKNMMYLQMNSLKPEDTAVYYCNMRDRTIWWGQGTQVTVSS
Regarding B3, in experiment [2], the “fold increase in affinity” value is no less than 2 fold. Further, in experiment [4], the Kd is less than 0.001 nM, the koff is less than 1e-07 s⁻¹ and the kon is 351000 M⁻¹ s⁻¹.

B4: 2LIG189 variant N32Q (VHH, not shown: small tags and cut ends)
VHH: QVQLQESGGGLVQAGGSLRLSCAASGKIFSGQDMGWYRQAPGKQRELVGIITSGGITDYADAVKGRFTISRDNAKNMMYLQMNSLKPEDTAVYYCNMRDRTIWWGQGTQVTVSS
With B4, the “fold increase in affinity” value in experiment [2] is no less than 2 fold. Also, the “Ratio KD” value in experiment [3] is 0.16. Besides, in experiment [4], the Kd was 0.125 nM, the koff came out at 8.84e-06 s⁻¹ and the kon stood at 70500 M⁻¹ s⁻¹.

B5: 2LIG189 variant M97V (VHH, not shown: small tags and cut ends)
VHH: QVQLQESGGGLVQAGGSLRLSCAASGKIFSGNDMGWYRQAPGKQRELVGIITSGGITDYADAVKGRFTISRDNAKNMMYLQMNSLKPEDTAVYYCNVRDRTIWWGQGTQVTVSS
As for B5, the “fold increase in affinity” value in experiment [2] is no less than 2 fold. The “Ratio KD” value in experiment [3] was 0.01. For the same molecule, in experiment [4], the Kd worked out at 0.00599 nM, the koff was found to be 3.81e-07 s⁻¹ and the kon was found to be 63700 M⁻¹ s⁻¹.

B6: 2LIG189 variant M97I (VHH, not shown: small tags and cut ends)
VHH: QVQLQESGGGLVQAGGSLRLSCAASGKIFSGNDMGWYRQAPGKQRELVGIITSGGITDYADAVKGRFTISRDNAKNMMYLQMNSLKPEDTAVYYCNIRDRTIWWGQGTQVTVSS
notes: also called M971 (so in the source)
Regarding B6, the “fold increase in affinity” value in experiment [2] is no less than 2 fold. Besides, the “Ratio KD” value in experiment [3] was determined as 0.01. Moreover, in experiment [4], the Kd was determined as 0.00741 nM, the koff was determined as 3.45e-07 s⁻¹ and the kon was 46500 M⁻¹ s⁻¹.

B7: 2LIG189 variant M97L (VHH, not shown: small tags and cut ends)
VHH: QVQLQESGGGLVQAGGSLRLSCAASGKIFSGNDMGWYRQAPGKQRELVGIITSGGITDYADAVKGRFTISRDNAKNMMYLQMNSLKPEDTAVYYCNLRDRTIWWGQGTQVTVSS
Regarding B7, the “fold increase in affinity” value in experiment [2] was no less than 2 fold. Further, the “Ratio KD” value in experiment [3] came to 0.01. Moreover, in experiment [4], the Kd is 0.0115 nM, the koff amounted to 4.88e-07 s⁻¹ and the kon is 42500 M⁻¹ s⁻¹.

B8: SEQ ID NO: 72 (2LIG189 humanization variant with deamidation and oxidation risk sites removed) (VHH)
VHH: DVQLVESGGGLVQPGGSLRLSCAASGKIFSGNHMGWYRQAPGKQRELVGIITSGGITDYADAVKGRFTISRDNSKNTVYLQMNSLRPEDTAVYYCNVRDRTIWWGQGTLVTVSS
notes: also called 2LIG189 second wave variant
For B8, the “fold increase in affinity” value in experiment [5] came to 40 fold. In experiment [6], the Kd turned out to be 0.144 nM, the koff turned out to be 7.71e-05 s⁻¹ and the kon amounted to 536000 M⁻¹ s⁻¹.
